# In article PMC2904749:
# Experiments:
# [1] = molecular target: human βB2-crystallin Q70E (human); assay: dynamic light scattering
# [2] = molecular target: human βB2-crystallin Q70E (human); assay: small angle X-ray scattering
# [3] = molecular target: human βB2-crystallin Q162E (human); assay: dynamic light scattering
# [4] = molecular target: human βB2-crystallin Q162E (human); assay: small angle X-ray scattering
# [5] = molecular target: human βB2-crystallin doubly deamidated mutant Q70EQ162E (human); assay: dynamic light scattering
# [6] = molecular target: human βB2-crystallin doubly deamidated mutant Q70EQ162E (human); assay: small angle X-ray scattering
substance,measurement,setting,value
human βB2-crystallin Q70E (natural protein),stoichiometry N,[1],2
same,stoichiometry N,[2],2
human βB2-crystallin Q162E (natural protein),stoichiometry N,[3],2
same,stoichiometry N,[4],2
human βB2-crystallin doubly deamidated mutant Q70EQ162E (natural protein),stoichiometry N,[5],2
same,stoichiometry N,[6],2
